The source of these data is US20230250154A1 (CYTONICS, published 2023).

Among the targets are Elastase; MMP12 (human, UniProt P39900 106-470, limits assumed); MMP8 (human, UniProt P22894 101-467, limits assumed); MMP9 (human, UniProt P14780 107-707, limits assumed); MMP3 (human, UniProt P08254 100-477, limits assumed); MMP13 (human, UniProt P45452 104-471, limits assumed).
Test in all cases: cell-based or functional assay
For another assay, the target named is T1, Cathepsin G (UniProt P08311 21-244).
T1 sequence (looked up): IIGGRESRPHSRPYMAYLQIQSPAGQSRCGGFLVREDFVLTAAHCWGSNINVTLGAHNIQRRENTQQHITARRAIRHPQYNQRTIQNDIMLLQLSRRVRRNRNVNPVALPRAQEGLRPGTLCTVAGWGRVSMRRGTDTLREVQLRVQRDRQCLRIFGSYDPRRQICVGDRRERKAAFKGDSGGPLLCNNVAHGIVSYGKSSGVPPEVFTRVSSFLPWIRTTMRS

A further assay addresses T2, MMP2 (human, UniProt P08253 110-660, limits assumed).
T2 sequence (looked up): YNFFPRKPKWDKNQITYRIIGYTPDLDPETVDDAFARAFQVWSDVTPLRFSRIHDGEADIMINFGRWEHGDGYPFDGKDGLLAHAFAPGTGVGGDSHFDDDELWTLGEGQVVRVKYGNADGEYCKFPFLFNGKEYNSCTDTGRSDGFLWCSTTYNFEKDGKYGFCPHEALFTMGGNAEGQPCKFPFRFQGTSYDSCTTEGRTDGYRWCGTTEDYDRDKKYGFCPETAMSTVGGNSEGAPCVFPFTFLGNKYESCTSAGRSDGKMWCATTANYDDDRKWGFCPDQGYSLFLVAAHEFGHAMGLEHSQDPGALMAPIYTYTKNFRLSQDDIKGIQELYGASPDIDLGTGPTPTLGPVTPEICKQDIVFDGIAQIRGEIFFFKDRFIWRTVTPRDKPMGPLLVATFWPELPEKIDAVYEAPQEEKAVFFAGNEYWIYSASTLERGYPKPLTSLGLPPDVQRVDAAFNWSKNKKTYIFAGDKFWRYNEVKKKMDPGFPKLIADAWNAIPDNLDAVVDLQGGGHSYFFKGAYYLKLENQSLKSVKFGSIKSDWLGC

In another assay the target is T3, MMP1 (human, UniProt P03956 100-469, limits assumed).
T3 sequence (looked up): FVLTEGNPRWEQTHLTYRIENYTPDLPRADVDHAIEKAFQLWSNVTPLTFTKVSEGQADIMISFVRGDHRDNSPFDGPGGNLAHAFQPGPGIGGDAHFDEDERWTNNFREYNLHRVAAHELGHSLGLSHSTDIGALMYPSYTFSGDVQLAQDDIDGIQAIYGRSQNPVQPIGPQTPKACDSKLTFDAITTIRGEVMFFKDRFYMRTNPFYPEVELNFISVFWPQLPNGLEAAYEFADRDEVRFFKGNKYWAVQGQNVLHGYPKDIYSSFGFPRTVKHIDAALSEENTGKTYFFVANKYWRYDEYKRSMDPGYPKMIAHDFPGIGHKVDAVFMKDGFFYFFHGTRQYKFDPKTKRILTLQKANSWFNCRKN

A further assay has as its target T4, ADAMTS4 (human, UniProt O75173 213-685, limits assumed).
T4 sequence (looked up): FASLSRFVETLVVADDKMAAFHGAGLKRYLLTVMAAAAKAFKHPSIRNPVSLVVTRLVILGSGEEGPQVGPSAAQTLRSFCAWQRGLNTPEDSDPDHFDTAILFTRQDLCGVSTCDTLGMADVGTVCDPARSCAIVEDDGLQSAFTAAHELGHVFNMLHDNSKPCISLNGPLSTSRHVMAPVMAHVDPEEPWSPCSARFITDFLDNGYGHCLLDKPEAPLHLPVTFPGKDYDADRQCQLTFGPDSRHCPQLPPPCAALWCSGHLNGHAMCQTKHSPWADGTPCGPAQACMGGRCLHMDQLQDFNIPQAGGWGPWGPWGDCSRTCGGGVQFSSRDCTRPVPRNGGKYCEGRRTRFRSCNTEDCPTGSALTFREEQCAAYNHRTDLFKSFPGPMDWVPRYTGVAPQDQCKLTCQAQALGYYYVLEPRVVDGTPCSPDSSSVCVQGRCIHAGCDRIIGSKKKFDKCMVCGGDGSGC

The next assay addresses T5, ADAMTS5 (human, UniProt Q9UNA0 262-622, limits assumed).
T5 sequence (looked up): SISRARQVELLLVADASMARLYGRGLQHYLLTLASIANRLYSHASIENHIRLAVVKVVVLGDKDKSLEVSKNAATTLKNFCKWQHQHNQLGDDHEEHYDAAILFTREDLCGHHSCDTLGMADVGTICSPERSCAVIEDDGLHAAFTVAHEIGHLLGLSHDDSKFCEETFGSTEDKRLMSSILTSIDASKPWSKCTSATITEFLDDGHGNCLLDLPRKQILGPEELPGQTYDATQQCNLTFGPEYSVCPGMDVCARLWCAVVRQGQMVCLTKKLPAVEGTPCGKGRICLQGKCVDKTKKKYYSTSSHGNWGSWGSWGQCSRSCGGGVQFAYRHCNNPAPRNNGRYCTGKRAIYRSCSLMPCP

Sequence of MMP9 (P14780 107-707 limits assumed): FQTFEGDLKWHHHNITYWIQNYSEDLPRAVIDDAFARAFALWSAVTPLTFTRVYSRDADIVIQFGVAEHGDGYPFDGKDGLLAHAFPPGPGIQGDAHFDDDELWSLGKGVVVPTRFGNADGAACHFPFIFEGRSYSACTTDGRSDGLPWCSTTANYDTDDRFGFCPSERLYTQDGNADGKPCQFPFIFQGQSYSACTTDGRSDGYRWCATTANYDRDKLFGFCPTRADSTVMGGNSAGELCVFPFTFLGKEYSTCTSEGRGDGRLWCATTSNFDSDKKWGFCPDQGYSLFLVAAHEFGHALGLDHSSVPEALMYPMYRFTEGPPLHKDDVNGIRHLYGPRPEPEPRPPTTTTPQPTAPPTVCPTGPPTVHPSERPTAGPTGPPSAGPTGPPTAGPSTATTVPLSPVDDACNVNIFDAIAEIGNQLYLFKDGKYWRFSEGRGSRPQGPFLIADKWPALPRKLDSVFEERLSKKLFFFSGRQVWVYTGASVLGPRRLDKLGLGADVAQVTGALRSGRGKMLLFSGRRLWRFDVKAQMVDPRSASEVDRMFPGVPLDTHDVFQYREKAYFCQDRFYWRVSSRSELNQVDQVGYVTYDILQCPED
Sequence of MMP8 (P22894 101-467 limits assumed): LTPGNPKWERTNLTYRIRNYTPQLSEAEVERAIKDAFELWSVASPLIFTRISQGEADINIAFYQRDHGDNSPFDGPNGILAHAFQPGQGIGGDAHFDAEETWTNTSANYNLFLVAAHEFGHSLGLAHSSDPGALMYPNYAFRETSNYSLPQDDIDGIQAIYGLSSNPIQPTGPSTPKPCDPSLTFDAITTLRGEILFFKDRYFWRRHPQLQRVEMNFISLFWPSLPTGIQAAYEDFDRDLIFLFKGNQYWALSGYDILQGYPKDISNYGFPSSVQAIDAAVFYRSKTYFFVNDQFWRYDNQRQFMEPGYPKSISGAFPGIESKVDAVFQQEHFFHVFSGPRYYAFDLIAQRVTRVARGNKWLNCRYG
Sequence of MMP3 (P08254 100-477 limits assumed): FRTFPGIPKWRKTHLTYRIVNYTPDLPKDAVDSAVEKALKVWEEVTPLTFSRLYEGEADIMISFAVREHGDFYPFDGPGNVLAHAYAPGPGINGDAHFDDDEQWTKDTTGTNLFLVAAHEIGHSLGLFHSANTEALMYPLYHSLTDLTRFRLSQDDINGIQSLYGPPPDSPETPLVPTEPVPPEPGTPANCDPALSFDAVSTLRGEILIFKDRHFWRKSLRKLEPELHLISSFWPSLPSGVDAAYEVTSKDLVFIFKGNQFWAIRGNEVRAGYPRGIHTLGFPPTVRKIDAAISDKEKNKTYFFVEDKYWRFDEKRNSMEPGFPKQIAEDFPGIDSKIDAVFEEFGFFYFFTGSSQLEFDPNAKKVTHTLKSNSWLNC
Sequence of MMP12 (P39900 106-470 limits assumed): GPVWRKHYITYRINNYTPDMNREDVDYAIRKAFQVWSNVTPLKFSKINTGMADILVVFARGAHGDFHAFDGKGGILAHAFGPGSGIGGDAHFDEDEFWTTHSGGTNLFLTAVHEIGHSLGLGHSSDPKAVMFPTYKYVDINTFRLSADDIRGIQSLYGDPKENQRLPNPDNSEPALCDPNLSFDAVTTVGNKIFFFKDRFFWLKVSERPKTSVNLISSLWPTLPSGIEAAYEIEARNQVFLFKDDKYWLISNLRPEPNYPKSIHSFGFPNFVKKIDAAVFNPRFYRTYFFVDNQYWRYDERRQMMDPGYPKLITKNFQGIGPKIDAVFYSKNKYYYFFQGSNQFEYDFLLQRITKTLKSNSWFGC

B1: Variant A2M, bait region SEQ ID NO 125 (other)
chain: SVSGKPQYMVLVPSLLHTETTEKGCVLLSYLNETVTVSASLESVRGNRSLFTDLEAENDVLHCVAFAVPKSSSNEEVMFLTVQVKGPTQEFKKRTTVMVKNEDSLVFVQTDKSIYKPGQTVKFRVVSMDENFHPLNELIPLVYIQDPKGNRIAQWQSFQLEGGLKQFSFPLSSEPFQGSYKVVVQKKSGGRTEHPFTVEEFVLPKFEVQVTVPKIITILEEEMNVSVCGLYTYGKPVPGHVTVSICRKYSDASDCHGEDSQAFCEKFSGQLNSHGCFYQQVKTKVFQLKRKEYEMKLHTEAQIQEEGTVVELTGRQSSEITRTITKLSFVKVDSHFRQGIPFFGQVRLVDGKGVPIPNKVIFIRGNEANYYSNATTDEHGLVQFSINTTNVMGTSLTVRVNYKDRSPCYGYQWVSEEHEEAHHTAYLVFSPSKSFVHLEPMSHELPCGHTQTVQAHYILNGGTLLGLKKLSFYYLIMAKGGIVRTGTHGLLVKQEDMKGHFSISIPVKSDIAPVARLLIYAVLPTGDVIGDSAKYDVENCLANKVDLSFSPSQSLPASHAHLRVTAAPQSVCALRAVDQSVLLMKPDAELSASSVYNLLPEKDLTGFPGPLNDQDDEDCINRHNVYINGITYTPVSSTNEKDMYSFLEDMGLKAFTNSKIRKPKMCPQLEQYEMHGPSELEGRGSIPENFFGVEAIPMSIPTSEDLVVQIVEEPHTKLRKYFPETWIWDLVVVNSAGVAEVGVTVPDTITEWKAGAFCLSEDAGLGISSTASLRAFQPFFVELTMPYSVIRGEAFTLKATVLNYLPKCIRVSVQLEASPAFLAVPVEKEQAPHCICANGRQTVSWAVTPKSLGNVNFTVSAEALESQELCGTEVPSVPEHGRKDTVIKPLLVEPEGLEKETTFNSLLCPSGGEVSEELSLKLPPNVVEESARASVSVLGDILGSAMQNTQNLLQMPYGCGEQNMVLFAPNIYVLDYLNETQQLTPEIKSKAIGYLNTGYQRQLNYKHYDGSYSTFGERYGRNQGNTWLTAFVLKTFAQARAYIFIDEAHITQALIWLSQRQKDNGCFRSSGSLLNNAIKGGVEDEVTLSAYITIALLEIPLTVTHPVVRNALFCLESAWKTAQEGDHGSHVYTKALLAYAFALAGNQDKRKEVLKSLNEEAVKKDNSVHWERPQKPKAPVGHFYEPQAPSAEVEMTSYVLLAYLTAQPAPTSEDLTSATNIVKWITKQQNAQGGFSSTQDTVVALHALSKYGAATFTRTGKAAQVTIQSSGTFSSKFQVDNNNRLLLQQVSLPELPGEYSMKVTGEGCVYLQTSLKYNILPEKEEFPFALGVQTLPQTCDEPKAHTSFQISLSVSYTGSRSASNMAIVDVKMVSGFIPLKPTVKMLERSNHVSRTEVSSNHVLIYLDKVSNQTLSLFFTVLQDVPVRDLKPAIVKVYDYYETDEFAIAEYNAPCSKDLGNADYKDDDDKGASHHHHHH
As for B1, the “Protease Inhibition (% of WT)” value with Elastase was 75 % of WT; with Cathepsin G it was 250 % of WT; in the assay with MMP2, 20 % of WT; in the assay with MMP12, 300 % of WT; in the assay with MMP8, 300 % of WT; in the assay with MMP9 it was 300 % of WT. For the same molecule, in the assay with MMP1, the “Protease Inhibition (% of WT)” value was 200 % of WT.

B2: Variant A2M, bait region SEQ ID NO 100 (other)
chain: SVSGKPQYMVLVPSLLHTETTEKGCVLLSYLNETVTVSASLESVRGNRSLFTDLEAENDVLHCVAFAVPKSSSNEEVMFLTVQVKGPTQEFKKRTTVMVKNEDSLVFVQTDKSIYKPGQTVKFRVVSMDENFHPLNELIPLVYIQDPKGNRIAQWQSFQLEGGLKQFSFPLSSEPFQGSYKVVVQKKSGGRTEHPFTVEEFVLPKFEVQVTVPKIITILEEEMNVSVCGLYTYGKPVPGHVTVSICRKYSDASDCHGEDSQAFCEKFSGQLNSHGCFYQQVKTKVFQLKRKEYEMKLHTEAQIQEEGTVVELTGRQSSEITRTITKLSFVKVDSHFRQGIPFFGQVRLVDGKGVPIPNKVIFIRGNEANYYSNATTDEHGLVQFSINTTNVMGTSLTVRVNYKDRSPCYGYQWVSEEHEEAHHTAYLVFSPSKSFVHLEPMSHELPCGHTQTVQAHYILNGGTLLGLKKLSFYYLIMAKGGIVRTGTHGLLVKQEDMKGHFSISIPVKSDIAPVARLLIYAVLPTGDVIGDSAKYDVENCLANKVDLSFSPSQSLPASHAHLRVTAAPQSVCALRAVDQSVLLMKPDAELSASSVYNLLPEKDLTGFPGPLNDQDDEDCINRHNVYINGITYTPVSSTNEKDMYSFLEDMGLKAFTNSKIRKPKMCPQLEQYEMHGPEGLRVGGEPEGAKGFYESDVMGRGHARLVHVEEPHTKLLRKYFPETWIWDLVVVNSAGVAEVGVTVPDTITEWKAGAFCLSEDAGLGISSTASLRAFQPFFVELTMPYSVIRGEAFTLKATVLNYLPKCIRVSVQLEASPAFLAVPVEKEQAPHCICANGRQTVSWAVTPKSLGNVNFTVSAEALESQELCGTEVPSVPEHGRKDTVIKPLLVEPEGLEKETTFNSLLCPSGGEVSEELSLKLPPNVVEESARASVSVLGDILGSAMQNTQNLLQMPYGCGEQNMVLFAPNIYVLDYLNETQQLTPEIKSKAIGYLNTGYQRQLNYKHYDGSYSTFGERYGRNQGNTWLTAFVLKTFAQARAYIFIDEAHITQALIWLSQRQKDNGCFRSSGSLLNNAIKGGVEDEVTLSAYITIALLEIPLTVTHPVVRNALFCLESAWKTAQEGDHGSHVYTKALLAYAFALAGNQDKRKEVLKSLNEEAVKKDNSVHWERPQKPKAPVGHFYEPQAPSAEVEMTSYVLLAYLTAQPAPTSEDLTSATNIVKWITKQQNAQGGFSSTQDTVVALHALSKYGAATFTRTGKAAQVTIQSSGTFSSKFQVDNNNRLLLQQVSLPELPGEYSMKVTGEGCVYLQTSLKYNILPEKEEFPFALGVQTLPQTCDEPKAHTSFQISLSVSYTGSRSASNMAIVDVKMVSGFIPLKPTVKMLERSNHVSRTEVSSNHVLIYLDKVSNQTLSLFFTVLQDVPVRDLKPAIVKVYDYYETDEFAIAEYNAPCSKDLGNADYKDDDDKGASHHHHHH
Consider B2, for which the “Protease Inhibition (% of WT)” value with MMP2 was 110 % of WT; with MMP3, 50 % of WT; with MMP8, 20 % of WT; with ADAMTS4, 50 % of WT; in the assay with MMP13, 210 % of WT; in the assay with MMP9, 50 % of WT. The results for the “Protease Inhibition (% of WT)” value in the assay with MMP1 and with ADAMTS5 were 40 % of WT and 400 % of WT, respectively.
